# T1: human growth hormone-releasing hormone receptor (GHRHR) (human)
# T1 chain: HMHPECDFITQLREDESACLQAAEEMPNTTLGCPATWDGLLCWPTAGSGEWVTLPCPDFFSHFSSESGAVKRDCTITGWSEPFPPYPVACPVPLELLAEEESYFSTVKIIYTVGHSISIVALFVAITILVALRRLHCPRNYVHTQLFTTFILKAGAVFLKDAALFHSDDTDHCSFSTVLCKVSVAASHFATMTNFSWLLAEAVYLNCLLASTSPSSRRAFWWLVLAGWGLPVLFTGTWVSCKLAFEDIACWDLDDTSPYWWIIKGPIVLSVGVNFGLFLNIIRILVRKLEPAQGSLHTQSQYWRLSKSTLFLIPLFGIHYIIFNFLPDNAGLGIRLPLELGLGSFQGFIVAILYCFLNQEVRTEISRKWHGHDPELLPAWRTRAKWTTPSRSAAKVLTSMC
# B1: recombinant growth hormone-releasing hormone (GHRH) (ligand)
# chain: YADAIFTNSYRKVLGQLSARKLLQDIMSRQQGESNQERGARARL
# Molecular target: T1, human growth hormone-releasing hormone …
# Experiment: cell-based or functional assay
binder,measurement,value
B1,NKX2.5 expression in differentiating hiPSCs,2.5 fold
